For 2 substances, fork regression during stalling under torsion (angular optical trap), ΔCt exo- replisome, mean fork position over a minute, fork regression during stalling under torsion (angular optical trap), WT replisome, mean fork position over a minute and fork regression during stalling under torsion (angular optical trap), ΔCt replisome, mean fork position over a minute results are on record in paper PMC12658067.

Assay [1] has as its target C-tail deletion mutant of T7 gp4A' with 17 C-terminal amino acid residues deleted (gp4A' ΔCt) (bacteriophage T7) (UniProt P03692).
In assay [2] the target is M64L mutant of T7 helicase gp4 (T7 gp4A') (bacteriophage T7) (UniProt P03692).
Assay [3] concerns the target C-tail deletion mutant of T7 gp4A' with 17 C-terminal amino acid residues deleted (gp4A' ΔCt) (bacteriophage T7) (UniProt P03692). This is another data set of the same source.

On to “Exonuclease deficient mutant of T7 gp5 DNA polymerase (D5A, E7A) complexed with E. coli thioredoxin (from UniProt P00581 1-704; P0AA25 1-109)”, for which the fork regression during stalling under torsion (angular optical trap), ΔCt exo- replisome, mean fork position over a minute in assay [1] came out at 340 bp. “Wild-type T7 gp5 DNA polymerase complexed with E. coli thioredoxin (from UniProt P00581 1-704; P0AA25 1-109)”: in assay [2], the fork regression during stalling under torsion (angular optical trap), WT replisome, mean fork position over a minute is 80 bp. The substance also had a fork regression during stalling under torsion (angular optical trap), ΔCt replisome, mean fork position over a minute in assay [3] of 240 bp.
